We go through eleven molecules from publication PMC3507807, “DNA binding specificity of ATAF2, a NAC domain transcription factor targeted for degradation by Tobacco mosaic virus” (BMC Plant Biology, 2012).

Series [1] deals with T1, ATAF2 (Arabidopsis thaliana) (UniProt Q9C598).
T1 sequence: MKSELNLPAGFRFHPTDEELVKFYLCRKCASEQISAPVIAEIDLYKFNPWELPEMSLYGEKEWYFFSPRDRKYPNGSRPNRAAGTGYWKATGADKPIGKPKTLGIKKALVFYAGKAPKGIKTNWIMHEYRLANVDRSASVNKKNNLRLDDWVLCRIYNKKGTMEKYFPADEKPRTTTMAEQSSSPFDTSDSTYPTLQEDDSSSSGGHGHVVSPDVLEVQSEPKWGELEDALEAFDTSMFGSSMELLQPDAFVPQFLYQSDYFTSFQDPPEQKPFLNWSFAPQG
Nature of the series: EMSA. To be noted: EMSA: 20 mM Tris-HCl pH 8.0, 60 mM KCl, 5 mM MgCl2, 100 ug/ml BSA, 5% glycerol, 1 mM DTT, 0.5 ug poly(dI-dC) in 10 ul, 100-300 fmol probe, 25 C 30 min. In general terms: A gel shift assay detects complexes by their altered migration in electrophoresis.

The next series deals with T2, ATAF2 (Arabidopsis thaliana, UniProt Q9C598 1-283).
T2 sequence: T1 sequence
Kind of series: EMSA; binding not dramatically reduced; EMSA: 20 mM Tris-HCl pH 8.0, 60 mM KCl, 5 mM MgCl2, 100 ug/ml BSA, 5% glycerol, 1 mM DTT, 0.5 ug poly(dI-dC) in 10 ul, 100-300 fmol probe, 25 C 30 min; 5% native PAGE, 0.5X TBE. Footprint: same binding buffer, 10 fmol probe. To be noted: protein: recombinant; tags: N-terminal His6 (pTrcHisA); chain copies: 2; label: 5'-32P.

Series [2] concerns the molecule itself. Kind of series: SEC; Superdex-200 HR 10/30; ~160 ug purified protein, incubated 20 min at room temperature and run in 25 mM Tris-HCl pH 7.5, 10% glycerol, 500 mM NaCl, 0.5 mM EDTA; fractions checked by SDS-PAGE; mass markers 670, 158, 44 and 17 kDa. (In gel filtration, larger molecules generally elute earlier.)

As to “TCCAAAGAGCAATCAAATTAAAACACATAT (double strand) [M1 (nt 3-4 AG to CA)]”, in series [1] (stated as 91% reduction), the binding signal was 9 % of WT. On to “TCAGAAGAGCAATCAAACCAAAACACATAT (double strand) [M4 (nt 18-19 TT to CC)]”, for which the binding signal in series [1] (stated as 87% reduction) is 13 % of WT. In the case of “TCAGAAGAGCAAGAAAATTAAAACACATAT (double strand) [M3 (nt 13-14 TC to GA)]”, the binding signal in series [1] (stated as 47% reduction) was 53 % of WT. “TCAGAAGAGCAATCAAATTAAAACACATAT (double strand) [30-bp ATAF2 binding sequence (wild type)]”: in series [1], the binding signal was 100 % of WT.

With “TCAGAAGAGCAAGTCCCCTAAAACACATAT (double strand) [C2 (nt 13-18 TCAAAT to GTCCCC)]”, the binding signal in series [1] (reduction >85%) is < 15 % of WT. Take “TCAGAAGAGCAATCAAATTAAAGAACATAT (double strand) [M5 (nt 23-24 AC to GA)]”: in series [1] (stated as 96% reduction), the binding signal is 4 % of WT. For the molecule “TCAGAAGAGCAATCAAATTAATTTTTTTAT (double strand) [C3 (nt 22-27 AACACA to TTTTTT)]”, the binding signal in series [1] (reduction >85%) is < 15 % of WT. Take “TCTTTTTAGCAATCAAATTAAAACACATAT (double strand) [C1 (nt 3-7 AGAAG to TTTTT)]”: in series [1] (reduction >85%), the binding signal was < 15 % of WT.

B1: M6 (dsDNA)
DNA 1: TCAGAAGAGCAATCAAATTAAAACACACCT
DNA 2: AGGTGTGTTTTAATTTGATTGCTCTTCTGA
As for B1, the binding result with ATAF2 was “binds”.

B2: ATAF2 NAC domain (ATAF2-165, 1 aa to 165 aa) (domain or fragment, Arabidopsis, UniProt Q9C598 1-165, looked up)
chain: MKSELNLPAGFRFHPTDEELVKFYLCRKCASEQISAPVIAEIDLYKFNPWELPEMSLYGEKEWYFFSPRDRKYPNGSRPNRAAGTGYWKATGADKPIGKPKTLGIKKALVFYAGKAPKGIKTNWIMHEYRLANVDRSASVNKKNNLRLDDWVLCRIYNKKGTMEK
notes: ATAF2 (AT5g08790), Arabidopsis thaliana NAC domain transcription factor, truncated version containing only the NAC domain, residues 1-165; source: E. coli BL21 (+), pTrcHisA, purified (Ni-NTA)
By stoichiometry N is commonly meant the number of molecules, sites or subunits per partner or assembly. B2: the “stoichiometry N” value in series [2] was found to be 2.

B3: M2 (dsDNA)
DNA 1: TCAGAAGTACAATCAAATTAAAACACATAT
DNA 2: ATATGTGTTTTAATTTGATTGTACTTCTGA
In the case of B3, the binding result with ATAF2 was “binds”.
